The values that follow are results of earlier work, collected in paper PMC7443330.

In this series the target is Spike RBD RBD (SARS-CoV-2) (UniProt P0DTC2).

Take Spike binding peptide 1 (SBP1): the Kd was 47 nM.

As usually defined, the Kd is the equilibrium constant for the complex coming apart.
